{"source": "patent US20170260258A1", "about": "(GENEONE LIFE SCIENCE, published 2017)", "key": {"[1]": {"molecular_target": "T1, L1CAM on L1CAM-overexpressing human cholangiocarcinoma cells (SCK-L1) (UniProt P32004 20-1257)", "T1 construct": "whole, on cells; also called L1 cell adhesion molecule", "T1 sequence (P32004 20-1257 limits assumed)": "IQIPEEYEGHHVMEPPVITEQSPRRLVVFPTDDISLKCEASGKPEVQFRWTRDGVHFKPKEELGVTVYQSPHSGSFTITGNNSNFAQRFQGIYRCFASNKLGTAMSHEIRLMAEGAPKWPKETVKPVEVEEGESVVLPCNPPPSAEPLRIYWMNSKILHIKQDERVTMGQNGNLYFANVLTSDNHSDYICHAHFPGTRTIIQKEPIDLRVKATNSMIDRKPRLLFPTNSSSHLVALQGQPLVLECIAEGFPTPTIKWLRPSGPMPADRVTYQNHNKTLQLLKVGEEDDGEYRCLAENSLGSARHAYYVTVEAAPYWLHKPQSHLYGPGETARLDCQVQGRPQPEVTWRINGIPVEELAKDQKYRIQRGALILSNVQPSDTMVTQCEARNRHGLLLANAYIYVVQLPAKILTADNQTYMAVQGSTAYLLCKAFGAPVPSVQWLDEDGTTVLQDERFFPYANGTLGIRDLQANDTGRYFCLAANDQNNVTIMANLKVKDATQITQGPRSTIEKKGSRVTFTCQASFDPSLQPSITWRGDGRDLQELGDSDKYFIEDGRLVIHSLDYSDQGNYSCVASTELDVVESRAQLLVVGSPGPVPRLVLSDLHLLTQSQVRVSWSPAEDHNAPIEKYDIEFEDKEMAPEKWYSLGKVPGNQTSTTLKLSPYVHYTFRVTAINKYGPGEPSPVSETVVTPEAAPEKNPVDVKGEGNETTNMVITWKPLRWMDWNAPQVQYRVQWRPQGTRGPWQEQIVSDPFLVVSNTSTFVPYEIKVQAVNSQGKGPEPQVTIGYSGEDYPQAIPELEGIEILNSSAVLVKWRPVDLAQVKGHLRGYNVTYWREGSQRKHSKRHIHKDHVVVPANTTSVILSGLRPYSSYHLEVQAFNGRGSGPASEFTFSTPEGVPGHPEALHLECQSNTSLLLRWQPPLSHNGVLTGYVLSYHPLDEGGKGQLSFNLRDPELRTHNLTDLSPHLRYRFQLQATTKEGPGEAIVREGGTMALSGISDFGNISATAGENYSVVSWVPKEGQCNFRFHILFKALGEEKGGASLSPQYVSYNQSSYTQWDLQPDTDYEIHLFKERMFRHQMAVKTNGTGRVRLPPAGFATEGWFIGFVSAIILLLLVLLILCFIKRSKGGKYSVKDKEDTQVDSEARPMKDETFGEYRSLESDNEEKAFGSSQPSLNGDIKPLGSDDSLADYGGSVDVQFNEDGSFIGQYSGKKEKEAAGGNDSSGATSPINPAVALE", "test": "flow cytometry"}, "[2]": {"molecular_target": "T2, GST-pre-S1 (1st to 56th amino acids) protein (hepatitis B virus, UniProt P08515 1-218 = GST)", "T2 sequence (P08515 whole entry)": "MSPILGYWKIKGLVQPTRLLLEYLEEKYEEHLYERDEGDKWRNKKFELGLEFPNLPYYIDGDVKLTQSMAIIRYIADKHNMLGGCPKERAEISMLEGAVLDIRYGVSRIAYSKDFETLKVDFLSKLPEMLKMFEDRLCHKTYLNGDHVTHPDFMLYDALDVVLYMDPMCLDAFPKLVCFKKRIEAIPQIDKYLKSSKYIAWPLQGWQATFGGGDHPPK", "test": "BLI (Octet Red)"}, "[3]": {"molecular_target": "T2, GST-pre-S1 (1st to 56th amino acids) …", "test": "affinity determination (competitive ELISA / Octet Red; FIGS. 2 to 5 cited)"}, "[4]": {"molecular_target": "T2, GST-pre-S1 (1st to 56th amino acids) …", "test": "BLI (Octet Red), antibody captured on anti-human Fc tip, GST-pre-S1 in solution", "description": "Thereafter, the biosensor tip was saturated with 2 μg/mL of the antibody for 10 minutes. […] The binding and separation rates were measured for 15 minutes and 30 minutes, respectively. In all the measurements, a baseline drift was corrected by subtracting a control sensor exposed to only a running buffer. The operating temperature was maintained at 30° C. The data was analyzed using a 1:1 interaction model (fitting global, Rmax unlinked by sensor) equipped with ForteBio data analysis software 7.0."}}, "data": [{"binder": "humanized antibody HzKR127-3.2 (antibody, V domains shown) VH: QVQLQQSGAEVKKPGASVKVSCKASGYTFTSSWMNWVRQAPGQGLEWMGRIYPGDGDTSYAQKFQGRVTMTADKSTSTVYMELSSLRSEDTAVYYCAREYAEAYWGQGTLVTVSS VL: DIVMTQTPLSLSVTPGQPASISCKSSQSLLYSNGKTYLNWLLQKPGQPPQRLIYLVSNRDSGVPDRFSGSGSGTDFTLKISRVEAEDVGVYYCVQGTHFPQTFGGGTKVEIKR", "values": [{"measurement": "binding result", "setting": "[1]", "result": "no binding (tested: 1 µg of the antibody in 100 µL)"}, {"measurement": "fold higher affinity than HzKR127-3.1", "setting": "[2]", "result": 1.6, "unit": "fold"}, {"measurement": "fold higher affinity than KR127", "setting": "[3]", "result": 2.5, "unit": "fold"}, {"measurement": "Kd", "setting": "[4]", "result": 0.493, "unit": "nM"}, {"measurement": "koff", "setting": "[4]", "result": "5.32e-05", "unit": "s⁻¹"}, {"measurement": "kon", "setting": "[4]", "result": 108000, "unit": "M⁻¹ s⁻¹"}]}]}
